Reference: publication PMC10039853

Experiments:
hen egg lysozyme, P00698 [1] = experiment: SPR; details: chain shown with the change;, read off a plot
hen egg lysozyme, P00698 [2] = experiment: ELISA; details: chain shown with the change;, read off a plot

Chain of hen egg lysozyme, P00698 (P00698 19-147): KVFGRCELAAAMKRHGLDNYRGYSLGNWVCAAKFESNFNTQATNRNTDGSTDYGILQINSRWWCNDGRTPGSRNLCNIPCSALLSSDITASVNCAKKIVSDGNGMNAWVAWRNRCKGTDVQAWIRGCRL

Binder	Kd (hen egg lysozyme, P00698 [1]; parent: est. 3.1e-12) [nM]	EC50 (hen egg lysozyme, P00698 [2]; parent: est. 0.92) [µg/mL]	Kd (hen egg lysozyme, P00698 [1]; parent: est. 3.3 pM) [nM]	EC50 (hen egg lysozyme, P00698 [2]; parent: est. 0.90) [µg/mL]
anti-lysozyme VHH D3-L11, wild type A79S (protein) DVQLVESGGGSVQAGGSLRLSCAASGSTDSIEYMTWFRQAPGKAREGVAALYTHTGNTYYTDSVKGRFTISQDKAKNMSYLRMDSVKSEDTAIYTCGATRKYVPVRFALDQSSYDYWGQGTQVTVSS	0.012	7.6	–	–
anti-lysozyme VHH D3-L11, wild type G26I (protein) DVQLVESGGGSVQAGGSLRLSCAASISTDSIEYMTWFRQAPGKAREGVAALYTHTGNTYYTDSVKGRFTISQDKAKNMAYLRMDSVKSEDTAIYTCGATRKYVPVRFALDQSSYDYWGQGTQVTVSS	–	–	0.026	–
anti-lysozyme VHH D3-L11, wild type A79W (protein) DVQLVESGGGSVQAGGSLRLSCAASGSTDSIEYMTWFRQAPGKAREGVAALYTHTGNTYYTDSVKGRFTISQDKAKNMWYLRMDSVKSEDTAIYTCGATRKYVPVRFALDQSSYDYWGQGTQVTVSS	0.015	1900	–	–
anti-lysozyme VHH D3-L11, wild type A79T (protein) DVQLVESGGGSVQAGGSLRLSCAASGSTDSIEYMTWFRQAPGKAREGVAALYTHTGNTYYTDSVKGRFTISQDKAKNMTYLRMDSVKSEDTAIYTCGATRKYVPVRFALDQSSYDYWGQGTQVTVSS	0.013	–	–	–
anti-lysozyme VHH D3-L11, wild type A79F (protein) DVQLVESGGGSVQAGGSLRLSCAASGSTDSIEYMTWFRQAPGKAREGVAALYTHTGNTYYTDSVKGRFTISQDKAKNMFYLRMDSVKSEDTAIYTCGATRKYVPVRFALDQSSYDYWGQGTQVTVSS	0.012	–	0.012	–
anti-lysozyme VHH D3-L11, wild type A24L (protein) DVQLVESGGGSVQAGGSLRLSCALSGSTDSIEYMTWFRQAPGKAREGVAALYTHTGNTYYTDSVKGRFTISQDKAKNMAYLRMDSVKSEDTAIYTCGATRKYVPVRFALDQSSYDYWGQGTQVTVSS	–	–	0.045	–
anti-lysozyme VHH D3-L11, wild type A79N (protein) DVQLVESGGGSVQAGGSLRLSCAASGSTDSIEYMTWFRQAPGKAREGVAALYTHTGNTYYTDSVKGRFTISQDKAKNMNYLRMDSVKSEDTAIYTCGATRKYVPVRFALDQSSYDYWGQGTQVTVSS	0.0081	6.7	–	–
anti-lysozyme VHH D3-L11, wild type G97F (protein) DVQLVESGGGSVQAGGSLRLSCAASGSTDSIEYMTWFRQAPGKAREGVAALYTHTGNTYYTDSVKGRFTISQDKAKNMAYLRMDSVKSEDTAIYTCFATRKYVPVRFALDQSSYDYWGQGTQVTVSS	–	–	0.0062	3.2
anti-lysozyme VHH D3-L11, wild type A79R (protein) DVQLVESGGGSVQAGGSLRLSCAASGSTDSIEYMTWFRQAPGKAREGVAALYTHTGNTYYTDSVKGRFTISQDKAKNMRYLRMDSVKSEDTAIYTCGATRKYVPVRFALDQSSYDYWGQGTQVTVSS	0.026	31	–	–
anti-lysozyme VHH D3-L11, wild type A79H (protein) DVQLVESGGGSVQAGGSLRLSCAASGSTDSIEYMTWFRQAPGKAREGVAALYTHTGNTYYTDSVKGRFTISQDKAKNMHYLRMDSVKSEDTAIYTCGATRKYVPVRFALDQSSYDYWGQGTQVTVSS	0.023	120	–	–

Further binders by falling Kd (hen egg lysozyme, P00698 [1]; parent: est. 3.1e-12), results first:

Kd (hen egg lysozyme, P00698 [1]; parent: est. 3.1e-12) [nM]	EC50 (hen egg lysozyme, P00698 [2]; parent: est. 0.92) [µg/mL]	Kd (hen egg lysozyme, P00698 [1]; parent: est. 3.3 pM) [nM]	EC50 (hen egg lysozyme, P00698 [2]; parent: est. 0.90) [µg/mL]	Binder
0.0072	9.5	–	–	anti-lysozyme VHH D3-L11, wild type A79Q (protein) DVQLVESGGGSVQAGGSLRLSCAASGSTDSIEYMTWFRQAPGKAREGVAALYTHTGNTYYTDSVKGRFTISQDKAKNMQYLRMDSVKSEDTAIYTCGATRKYVPVRFALDQSSYDYWGQGTQVTVSS
0.0068	4.2	–	–	anti-lysozyme VHH D3-L11, wild type A79M (protein) DVQLVESGGGSVQAGGSLRLSCAASGSTDSIEYMTWFRQAPGKAREGVAALYTHTGNTYYTDSVKGRFTISQDKAKNMMYLRMDSVKSEDTAIYTCGATRKYVPVRFALDQSSYDYWGQGTQVTVSS
0.0067	1.5	–	–	anti-lysozyme VHH D3-L11, wild type A79L (protein) DVQLVESGGGSVQAGGSLRLSCAASGSTDSIEYMTWFRQAPGKAREGVAALYTHTGNTYYTDSVKGRFTISQDKAKNMLYLRMDSVKSEDTAIYTCGATRKYVPVRFALDQSSYDYWGQGTQVTVSS
0.0055	–	–	–	anti-lysozyme VHH D3-L11, wild type A79Y (protein) DVQLVESGGGSVQAGGSLRLSCAASGSTDSIEYMTWFRQAPGKAREGVAALYTHTGNTYYTDSVKGRFTISQDKAKNMYYLRMDSVKSEDTAIYTCGATRKYVPVRFALDQSSYDYWGQGTQVTVSS
0.0049	0.92	–	–	anti-lysozyme VHH D3-L11, wild type A79I (protein) DVQLVESGGGSVQAGGSLRLSCAASGSTDSIEYMTWFRQAPGKAREGVAALYTHTGNTYYTDSVKGRFTISQDKAKNMIYLRMDSVKSEDTAIYTCGATRKYVPVRFALDQSSYDYWGQGTQVTVSS
0.0037	10	–	–	anti-lysozyme VHH D3-L11, wild type A79C (protein) DVQLVESGGGSVQAGGSLRLSCAASGSTDSIEYMTWFRQAPGKAREGVAALYTHTGNTYYTDSVKGRFTISQDKAKNMCYLRMDSVKSEDTAIYTCGATRKYVPVRFALDQSSYDYWGQGTQVTVSS
0.0036	2.5	–	–	anti-lysozyme VHH D3-L11, wild type A79V (protein) DVQLVESGGGSVQAGGSLRLSCAASGSTDSIEYMTWFRQAPGKAREGVAALYTHTGNTYYTDSVKGRFTISQDKAKNMVYLRMDSVKSEDTAIYTCGATRKYVPVRFALDQSSYDYWGQGTQVTVSS
